From publication PMC6309224
Values belong to the substance of their own block, whether it stands above or below them.

How the values were obtained:
[1] = target: DIP-α ectodomain (isoform A Phe40-Pro341) (Drosophila melanogaster); assay: AUC
[2] = target: DIP-ζ ectodomain (isoform A Glu111-Tyr412) (Drosophila melanogaster); assay: AUC
[3] = target: DIP-η ectodomain (isoform B Gln31-Pro338) (Drosophila melanogaster); assay: AUC
[4] = target: DIP-η ectodomain (isoform B Gln31-Pro338) (Drosophila melanogaster); assay: SPR
[5] = target: DIP-ι ectodomain (Phe23-Ala325) (Drosophila melanogaster); assay: SPR
[6] = target: DIP-α ectodomain (isoform A Phe40-Pro341) (Drosophila melanogaster); assay: SPR
[7] = target: DIP-θ ectodomain (Asp128-Pro423) (Drosophila melanogaster); assay: SPR
[8] = target: DIP-β ectodomain (isoform C Ile82-Glu408) (Drosophila melanogaster); assay: SPR
[9] = target: Dpr12 ectodomain (Dpr12C Ser72-Asp285) (Drosophila melanogaster); assay: AUC
[10] = target: DIP-ε ectodomain (Glu50-Ser351) (Drosophila melanogaster); assay: SPR
[11] = target: DIP-ζ ectodomain (isoform A Glu111-Tyr412) (Drosophila melanogaster); assay: SPR
[12] = target: Dpr21 ectodomain (Asp48-Asp253) (Drosophila melanogaster); assay: AUC

Kd [1]: 23.9 µM
Substance: DIP-α ectodomain (isoform A Phe40-Pro341) (domain or fragment)

Kd [2]: 22.2 µM
Substance: DIP-ζ ectodomain (isoform A Glu111-Tyr412) (domain or fragment)

Kd [3]: 35.4 µM
Substance: DIP-η ectodomain (isoform B Gln31-Pro338) (domain or fragment)

Kd [4]: 41 µM | Kd [5]: 22.4 µM
Substance: Dpr2 ectodomain (Dpr2F Tyr103-Glu323) (domain or fragment)

Kd [6]: 16 µM
Substance: Dpr4 D74N A76T K82H K136V ectodomain (domain or fragment)

fold weaker binding than wild-type Dpr4 [4]: > 4 fold | fold weaker binding than wild-type Dpr4 [7]: > 4 fold | Kd [6]: 44.9 µM
Substance: Dpr4 K82H K136V ectodomain (domain or fragment)

Kd [6]: > 400 µM
Substance: Dpr4 K82H ectodomain (domain or fragment)

fold decrease in binding against wild-type Dpr6 [6]: 25 fold
Substance: Dpr6 H110K ectodomain (domain or fragment)

Kd [4]: 119 µM | Kd [7]: 72 µM
Substance: Dpr6 N102D H110K V164K ectodomain (domain or fragment)

Kd [8]: 19.4 µM
Substance: Dpr6 ectodomain (Dpr6C Trp70-Glu275) (domain or fragment)

Kd [5]: 136 µM
Substance: Dpr7 ectodomain (Dpr7F Thr37-Glu269) (domain or fragment)

Kd [8]: 54.9 µM
Substance: Dpr10 ectodomain (Dpr10D Trp50-Glu255) (domain or fragment)

Kd [8]: 94 µM
Substance: Dpr11 ectodomain (Dpr11B Leu114-Glu324) (domain or fragment)

Kd [9]: 71.3 µM
Substance: Dpr12 ectodomain (Dpr12C Ser72-Asp285) (domain or fragment)

Kd [10]: 69.2 µM | Kd [11]: 106 µM
Substance: Dpr14 ectodomain (Dpr14A Thr26-Glu283) (domain or fragment)

Kd [10]: 21.2 µM | Kd [11]: 24.7 µM
Substance: Dpr18 ectodomain (His214-Glu478) (domain or fragment)

Kd [12]: 49.1 µM
Substance: Dpr21 ectodomain (Asp48-Asp253) (domain or fragment)
